Data on 1 substance can be found in article PMC3817168.

The target of this assay is ChrB-His6 (Ochrobactrum tritici 5bvl1). The assay can be described thus: cross-linking; 8 µg purified protein, 0.1% glutaraldehyde, 20 mM NaCl, 10 mM KCl, 2 mM DTT, 20 mM Hepes pH 7.5, 30°C, 2 to 60 min; read by 10% SDS-PAGE or anti-His immunoblot; also with chr promoter DNA and/or Cr(VI), without effect. Background: Immunoblotting shows a protein as a band on a membrane.

ChrB-His6 (natural protein) returned a stoichiometry N of 2.

Broadly, the stoichiometry N is a count of units in the complex or per binding partner.
